The target in this test is GFP-tagged IQGAP1 lacking IQ domains (IQGAPΔIQ) (UniProt P46940). The test can be described thus: co-IP.
Sequence of UniProt P46940 (P46940 whole entry, stated change not applied, the tested form may be a part): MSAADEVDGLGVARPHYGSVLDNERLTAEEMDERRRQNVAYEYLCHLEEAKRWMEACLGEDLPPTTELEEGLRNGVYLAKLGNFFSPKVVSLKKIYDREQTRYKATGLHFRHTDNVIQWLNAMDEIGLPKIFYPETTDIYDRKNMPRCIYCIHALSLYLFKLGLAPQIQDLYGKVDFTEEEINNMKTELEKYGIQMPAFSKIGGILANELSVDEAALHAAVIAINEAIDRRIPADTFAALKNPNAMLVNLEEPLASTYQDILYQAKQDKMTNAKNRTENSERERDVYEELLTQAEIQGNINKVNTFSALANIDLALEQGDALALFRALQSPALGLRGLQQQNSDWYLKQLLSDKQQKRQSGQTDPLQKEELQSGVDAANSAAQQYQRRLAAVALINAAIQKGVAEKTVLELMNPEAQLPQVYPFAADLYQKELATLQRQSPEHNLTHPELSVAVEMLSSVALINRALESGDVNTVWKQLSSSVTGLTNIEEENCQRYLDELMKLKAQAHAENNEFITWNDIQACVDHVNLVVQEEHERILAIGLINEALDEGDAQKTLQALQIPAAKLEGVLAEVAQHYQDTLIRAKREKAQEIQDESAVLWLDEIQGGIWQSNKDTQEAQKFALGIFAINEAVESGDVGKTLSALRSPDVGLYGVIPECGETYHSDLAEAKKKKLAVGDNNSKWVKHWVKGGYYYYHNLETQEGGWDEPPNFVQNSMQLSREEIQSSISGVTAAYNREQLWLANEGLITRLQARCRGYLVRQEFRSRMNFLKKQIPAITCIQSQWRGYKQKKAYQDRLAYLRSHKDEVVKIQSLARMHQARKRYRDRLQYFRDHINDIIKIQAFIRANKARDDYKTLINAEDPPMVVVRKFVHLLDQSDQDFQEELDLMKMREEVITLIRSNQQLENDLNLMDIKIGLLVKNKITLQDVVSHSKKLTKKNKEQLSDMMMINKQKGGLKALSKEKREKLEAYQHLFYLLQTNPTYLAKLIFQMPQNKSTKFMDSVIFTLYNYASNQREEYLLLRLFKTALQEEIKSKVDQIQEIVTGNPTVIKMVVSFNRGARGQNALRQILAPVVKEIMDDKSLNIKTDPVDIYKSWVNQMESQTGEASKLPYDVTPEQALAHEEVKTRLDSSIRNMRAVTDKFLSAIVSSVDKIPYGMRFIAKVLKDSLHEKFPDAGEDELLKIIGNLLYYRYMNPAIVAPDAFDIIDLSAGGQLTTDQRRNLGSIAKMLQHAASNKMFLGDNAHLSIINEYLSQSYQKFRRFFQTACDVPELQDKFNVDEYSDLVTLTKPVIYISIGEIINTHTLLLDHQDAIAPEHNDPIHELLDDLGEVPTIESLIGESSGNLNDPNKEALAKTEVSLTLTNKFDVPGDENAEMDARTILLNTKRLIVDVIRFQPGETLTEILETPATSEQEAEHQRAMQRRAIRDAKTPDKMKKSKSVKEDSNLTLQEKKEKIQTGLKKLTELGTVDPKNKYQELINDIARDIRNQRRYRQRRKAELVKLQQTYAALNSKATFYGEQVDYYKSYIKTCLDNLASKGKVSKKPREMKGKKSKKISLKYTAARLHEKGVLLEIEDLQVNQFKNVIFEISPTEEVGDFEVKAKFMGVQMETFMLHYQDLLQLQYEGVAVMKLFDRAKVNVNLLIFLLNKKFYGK

For the substance “AKAP220, endogenous in COS cells (natural protein)”, the fold enhancement in binding (densitometry) is 3.6 fold.
